Measurements from the RNAGym collection of RNA variant scans (doi:10.1073/pnas.2313332121).

B1: TPR t1 (parent)
chain: GACCAAUCUGCCCUCAGAGCUCGAGAACAUCUUCGGAUGCAGAGGAGGCAGGCUUCGGUGGCGCGAUAGCGCCAACGUCCUCAACCUCCAAUGCAUCCCACCACAUGAUGAUGCCUGAAGAGCCUUGGUUUUUUG

Variants of: B1
Assay: polymerase ribozyme fitness, log enrichment relative to wild type (log ratio); higher = more active; in vitro selection for triplet polymerase activity
Method in brief: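 PCR was used to build mutant libraries for each subunit of a heterodimeric triplet polymerase ribozyme, which were then transcribed. A single in vitro selection round, in triplicate, used a frozen incubation at −7 °C and recovered extended constructs by gel excision, streptavidin beads and RT-PCR. Fitness is the logarithm of genotype enrichment relative to wild-type enrichment, averaged over replicates with inverse-variance weights. The logarithm is base 2, and after Illumina sequencing only genotypes with ≥10 input reads and ≥1 read per output were kept.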

Row | Variant | polymerase ribozyme fitness (log ratio)
1 | C12A A105G C124U | -0.99
2 | C11U C73G C102A A103U | -5.8
3 | C12A A41G G63A | -2.29
4 | C12A G19A A46C C73U G117C | -5.99
5 | C12G A108G | -1.2
6 | C12A G69A | -2.89
7 | C12A G69U | -0.288
8 | C12G C20U G36A G71A C80U C82A C88A G120U U126C | -5.21
9 | C11G G42A A121C | 0.0348
10 | C11U A16U G39C G42A C56U | -3.73
11 | C12G A74U | -0.266
12 | C11G G117C | -1.94
13 | C11U A46C G51U C86G C102A | -8.49
14 | C11G G39A C49G C53U G69A G120C | -2.46
15 | C11G G17A C124U | -3.84
16 | C11G G35U C82A A105C C123A C124A | -5.28
17 | C12A C62A G77A | -3.27
18 | C11U C73G C124U | 0.969
19 | C12A C115A | -0.819
20 | C11U C115G | -1.7
21 | C11G U112A | 1.42
22 | C11G G39A C53G | -0.759
23 | C11U C85U | -1.93
24 | C11U C101G | -2.02

Row | Variant | polymerase ribozyme fitness (log ratio)
25 | C11U C101A | -1.8
26 | C11G U78G C98U | -0.594
27 | C11U G39A | -1.08
28 | C11U C22G C40U G69A | -5.5
29 | C11U C70U C102U | -3.34
30 | C12A G47A C102G A111C A118C U129C | -7.59
31 | C12A C49A G63U A121U U132C G135A | 1.42
32 | C12G A37U A105C U112C | -0.116
33 | C11U G77U A91U | -1.63
34 | C12A G71U A91C | -1.77
35 | C11U G61A U112C | 1.14
36 | C11G G93U C123U | 0.981
37 | C12A G19A C20A C53U C89A | -3.61
38 | C11G G35A A84U | -4.58
39 | C11U C104G | -6.74
40 | C11U C104A | -2.66
41 | C11U A50U G61C C76A A111C | -6.51
42 | C11G U87G C123G | 1.19
43 | C11U G128C | -2.9
44 | C11U C15A G45U C72A U129A | -5.41
45 | C11U A100C G110A | -2.68
46 | C12A A84U | -1.96
47 | C12A G48U G71A | -2.04
48 | C11U G44A G52A A118C C123G | -1.81

Row | Variant | polymerase ribozyme fitness (log ratio)
49 | C11U A41U G69U A74G G117A U125A U130A U131A | -6.86
50 | C11G C104A | -1.42
51 | C12A G39U | -1.1
52 | C11U C49G U92A C123G | -3.91
53 | C11G G61C | -1.35
54 | C11G G61A | 1
55 | C11G G35C G45U G71A U81A U112A U125A | -6.05
56 | C11U A43C G69C G77U U112G U134G | -5.15
57 | C12A G39U A50U U133A | -1.46
58 | C11U C62U | -0.515
59 | C11U G42A C73U C104A U109A U125G | -7.2
60 | C12A A41U G77C A83G C85A U125A | -4.14
61 | C11U C49U G63A U109A G117C A119U | -7.12
62 | C11U U78C | -0.264
63 | C11U C28U G120A C124G | 0.0586
64 | C12G A16U G48A C82A | -3.19
65 | C11U C53G C64U C101U U125A | -1.43
66 | C12A U126C | -2.01
67 | C12G C13A C72G C124U | -0.0514
68 | C11G G36C G77A | -0.0394
69 | C11U A18G C72A | -3.7
70 | C12A C13U G61U U106A | -0.644
71 | C11U C20A G57A C62U U87A | -4.19
72 | C11U U32A C34U G69U C88A | -4.62

Row | Variant | polymerase ribozyme fitness (log ratio)
73 | C12A A18C | -1.6
74 | C12G A29U C49G C82U C115U U133A | -2.06
75 | C12A U14A C28U C85U | -3.93
76 | C12A C49A C88A G110U | -1.74
77 | C11G C114A | -1.06
78 | C11G G107C U112C C123U G128C | -5.88
79 | C11U G45A G51A C76G A91C C114G | -5.71
80 | C12A C89U | -1.16
81 | C12A C20U A26C G48A C49A A121G U133A | -5.75
82 | C12A C49A C70A C97A G120U U130G | -5.85
83 | C12A C40A C70G | -4.57
84 | C11U G42U G48C C88U G135C | -1.51
85 | C11G G63C U96A | -0.969
86 | C11G G36U G63A C98G | -6.37
87 | C11G G120C G135C | 2.47
88 | C11U C88U C104A A121G | 0.139
89 | C11U C15G G47A C86A A90G G117U G120C | -0.496
90 | C12A C72G | -0.22
91 | C12A C72U | -0.97
92 | C11U C56U | -0.0444
93 | C11U U92A | -2.13
94 | C12G A18U G39A G52A G60A C82U U106G G120A | -3.95
95 | C12A A41U G48A G77U A83G | -2.82
96 | C12A G48C U116G | -5.7

Row | Variant | polymerase ribozyme fitness (log ratio)
97 | C12G A37C A41U C79A | -3.13
98 | C11G G25C G39A C56A U67G C72A C82A A111C | -6.95
99 | C12A C97A | -4.79
100 | C11U G39U C86G | -2.92
101 | C11U U14A A84G | -4.24
102 | C12A A74G C123A U131A | 2.13
103 | C11G G36A C73U | -0.782
104 | C11U C70U | -0.753
105 | C11U C70G | -2.97
106 | C12A G113C | -2.64
107 | C12A G113U | -2.09
108 | C11U U112G G127A | -1.34
109 | C11U C15U G45U C64U U78A C80U C82U A111U | -8.07
110 | C11G G17A G60A C79G A90U C99A | -7.47
111 | C11U C22G C40U | -3.22
112 | C11G G61A A90U U109G G117A | -6.12
113 | C12A G63A C89G C114A | -6.47
114 | C11U G63A | -1.15
115 | C11U G63U | -1.27
116 | C12G A46G G63C C115G | -4.6
117 | C11G G63C A105U C123G | -2.11
118 | C11G G77C | -0.624
119 | C11U C12U | -0.628
120 | C11U C12G | -0.553

Row | Variant | polymerase ribozyme fitness (log ratio)
121 | C11U C86U | -0.821
122 | C11U G61A | 0.135
123 | C12A G44C C64U U125G | -2.52
124 | C12A C88G C89A U116C C124A G127A | -3.44
125 | C11U U21G G42A U96G | -4.94
126 | C11U G113A | -1.33
127 | C11U A18U C53U C72G C82G U96G C98U C104U U109C | -7.77
128 | C12A G57A | -1.19
129 | C11U A16U A26U C62A G120C | -5.1
130 | C12A U81A U133A | -1.05
131 | C12A C13A U59G G127A | -3.41
132 | C12A C123G | 1.19
133 | C11U A46C | -1.05
134 | C12A G51A A91G A119G G120A | -2.39
135 | C11U C53A G63C A103C G113U | -6.41
136 | C11U C64U | -0.331
137 | C11U G117C A119U | -3.48
138 | C11G U21A A24U G60U C94G G120A | -7.06
139 | C12A C53G G69A C115A U116A | -7.23
140 | C11G C99U | -2.71
141 | C11U G71U G93A C104U | -1.26
142 | C11G U14A A46U | -1.11
143 | C12A C64U U81A | -1.67
144 | C12A G117C A121G | -3.52

Row | Variant | polymerase ribozyme fitness (log ratio)
145 | C12A G71A | -1.07
146 | C12A C99U C123U U129G | -3.57
147 | C11G G42U U59A G60U | -1.24
148 | C12A C20A G61A C88U U116C | -4.6
149 | C11U G52U A83U G110C C123U | -5.57
150 | C12G A24U C76A C82A G120C | -6.17
151 | C12G C15G A46U A74G U78A C114A | -6.73
152 | C11U C73A | -0.524
153 | C11U U81A | -2.1
154 | C11U U21C G120U | 0.267
155 | C11U G48A | -1.69
156 | C11U G48U | -0.841
157 | C11U G17U | -4.34
158 | C11U G60A | -0.708
159 | C12G C28U C53A | -2.29
160 | C12A C34A G45A G71C | -6.58
161 | C12A C22A G52A A84U A91C G120C | -6.58
162 | C12A G61U C70U U81G | -4.98
163 | C11G G48C G110A | -1.89
164 | C11U G63U U78C C101A | -4.53
165 | C11G G57A C73A C123G | 0.666
166 | C12A C56U A95G C115A C124A | 0.771
167 | C11G G57U U67G G120A | -6.74
